Reference: patent US8344120B2, “Nucleic acid molecules encoding rage fusion proteins” (TransTech Pharma, Inc., priority 2006, dated 2013)

System: diabetic rat model of restenosis
Test: Diabetic rat model of restenosis
Assay type: in vivo, rats
Details: for Intimal area / Medial area: IP, 21 days
Description: Use of the RAGE fusion proteins in the treatment of diabetes related pathology is illustrated in FIG. 14.
In these experiments, balloon injury of left common carotid artery was performed in Zucker diabetic and nondiabetic rats using standard procedure. […] A maintenance dose was delivered every other day until day 7 after injury (i.e., at day 1, 3, 5 and 7 after injury). The maintenance dose was high=1 mg/animal for one group, or low=0.3 mg/animal for the second group. To measure vascular smooth muscle cell (VSMC) proliferation, animals were sacrificed at 4 days and 21 days after injury.
For the measurement of cell proliferation, 4 day animals received intraperitoneal injection of bromodeoxyuridine (BrDdU) 50 mg/kg at 18, 12, and 2 hours before euthanasia. After sacrifice, the entire left and right carotid arteries were harvested. Specimens were stored in Histochoice for at least 24 hours before embedding. Assessment of VSMC proliferation was performed using mouse anti-BrdU monoclonal antibody. A fluorescence labeled goat anti-mouse secondary antibody was applied. The number of BrdU-positive nuclei per section were counted by two observers blinded to the treatment regimens.
The remaining rats were sacrificed at 21 days for morphometric analysis. Morphometric analyses were performed by an observer blinded to the study groups, using computerized digital microscopic planimetry software Image-Pro Plus on serial sections, ([…]) carotid arteries stained by Van Gieson staining. All data were expressed as mean±SD. Statistical analysis was performed with use of SPSS software. Continuous variables were compared using unpaired t tests. A values of P≦0.05 was considered to be statistically significant.
In FIG. 14B, the y-axis represents the number of BrdU proliferating cells.

[1] = High dose 1.0 mg/animal qod × 4, loading dose 3 mg/animal
[2] = Low dose 0.3 mg/animal qod × 4, loading dose 3 mg/animal

B1: TTP-4000: four domain RAGE fusion protein: human RAGE N-terminal sequence (to position 251) linked to human IgG Fc (γ1) without hinge; SEQ ID NO: 34/56 (protein)
chain: QNITARIGEPLVLKCKGAPKKPPQRLEWKLNTGRTEAWKVLSPQGGGPWDSVARVLPNGSLFLPAVGIQDEGIFRCQAMNRNGKETKSNYRVRVYQIPGKPEIVDSASELTAGVPNKVGTCVSEGSYPAGTLSWHLDGKPLVPNEKGVSVKEQTRRHPETGLFTLQSELMVTPARGGDPRPTFSCSFSPGLPRHRALRTAPIQPRVWEPVPLEEVQLVVEPEGGAVAPPSVFLFPPKPKDTLMISRTPEVTCVVVDVSHEDPEVKFNWYVDGVEVHNAKTKPREEQYNSTYRVVSVLTVLHQDWLNGKEYKCKVSNKALPAPIEKTISKAKGQPREPQVYTLPPSRDELTKNQVSLTCLVKGFYPSDIAVEWESNGQPENNYKTTPPVLDSDGSFFLYSKLTVDKSRWQQGNVFSCSVMHEALHNHYTQKSLSLSPGK
B1 was tested. Which “vascular smooth muscle cell proliferation (BrdU-positive nuclei)” value (4 days after injury, dose-responsive) did it give?
The value was “significantly reduced”.

And the Intimal area [1]?
Its Intimal area is 0.16 ± 0.02 mm^2.

What about the Medial area [1] of the same molecule?
The Medial area was 0.11 ± 0.01 mm^2.

And the Intimal area [2]?
The Intimal area was 0.18 ± 0.04 mm^2.

And the Medial area [2]?
The Medial area was 0.11 ± 0.02 mm^2.
